Source: patent US20130210034A1, “COMPLEX PHOSPHOPROTEIN ACTIVATION PROFILES” (BECKMAN COULTER, INC., priority 2005, published 2013)
Values joined by “and” are separate entries in the source; they are usually repeats but may differ in a detail not shown here. Equal entries are not always repeated.

Key:
Assay in all cases: Cytokine-stimulated phosphorylation in immunophenotypically defined cell populations from healthy donor BM (flow cytometry);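 for pAKT S/N ratio: Phosphoprotein MFI normalized to lymphocyte MFI as internal negative control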;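 for pSTAT5 S/N ratio: Phosphoprotein MFI normalized to lymphocyte MFI as internal negative control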
Assay type in all cases: cell-based, human
[1] = tested on: pSTAT5; details: healthy donor BM, mean ± SD;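 for pSTAT5 S/N ratio: Phosphoprotein MFI normalized to lymphocyte MFI as internal negative control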
Protocol: (§1) Bone marrow (BM) samples were collected in 7.5 mL Iscove's modified Dulbecco's medium (IMDM) supplemented with 100U penicillin, 0.01 mg/mL streptomycin, and 70 μg/mL heparin sodium salt from 10 patients undergoing hip replacement surgery, who were otherwise healthy. These patients were from a pool of surgery patients, age 49 to 77, and represented […] patients. […] These BM samples were rinsed twice with IMDM to release cells, filtered using a 100 μm Nylon cell strainer to remove marrow particles, and centrifuged for at RT fro 7 minutes at 200 g. The cell pellet was washed twice with sterile IMDM to remove traces of fat and re-suspended in IMDM to a concentration of 3×10^7 cells/mL.
(§2) To assess the signal transduction response after growth factor simulation, a series comprising two sets of tubes including about 3×10^6 cells/100 μL were incubated at 37° C. for 30 minutes. After this pre-incubation period, tubes with then processes with either a stimulant or inhibitor. […] To examine the effects of protein phosphorylation inhibition, tubes were incubated with an inhibitor cocktail comprising 100 μM/100 μL UO126, 1 μM/100 μL LY294002, and 1 μM/100 μL rapamycin. One unstimulated tube receiving no stimulant or inhibitor was processed to assess basal levels of phospho-protein expression. After stimulation the cells were immediately fixed in 10% formaldehyde solution at 37° C. Pre-labeling with CD13, CD16 and CD64 antibodies was carried out 20 minutes prior to formaldehyde fixation. After fixation, one set of tubes was permeabilized without methanol for pAKT, pERK and pS6 staining and the other for 80% methanol permeabilized for pSTAT3 and pSTAT5 staining. After permeablization, the cells were washed in PBS with 2% BSA and blocked by re-suspended in 75 μL of PBS comprising 25% heat inactivated normal mouse serum, 25% normal rabbit serum. To stain cells with fluorescent conjugated monoclonal antibodies, samples were incubated on ice for 45 minutes in 100 μL of an antibody staining solution including either: 1) CD15-Pacific Orange, CD34-Phycoerythrin-Texas Red, CD117-Phycoerythrin-Cyanin 5.5, CD45-Allophycocyanin-Alexa Fluor 750 (or CD45-Pacific Orange, in which case CD15-Pacific Orange was omitted), pS6-Pacific Blue, pERK-Alexa Fluor 488 and pAKT-Alexa Fluor 647 or 2) CD15-Pacific Orange, CD34-Phycoerythrin-Texas Red, CD117-Phycoerythrin-Cyanin 5.5, CD45-Allophycocyanin-Alexa Fluor 750 or CD45-Pacific Blue, pSTAT3-Alexa Fluor 488 and pSTAT5-Phycoerythrin. The stained cells were washed twice with ice cold PBS containing 2% BSA and centrifuged at 800 g for 6 minutes at 4° C. The supernatant was discarded and cells re-suspended in 250 μL of chilled wash buffer for data acquisition. Stained cells were examined using either GALIOS flow cytometer (Beckman Coulter) or CYAN ADP (Beckman Coulter) equipped with 488 nm, 405 nm and 635 nm lasers to detect the degree of fluorescence. Data were analyzed using FCS Express (De Novo Software, CA) analysis software.
(§3) Specific phosphoprotein expression of pERK, pS6, pAKT, pSTAT5, and pSTAT3 was examined in seven discrete phenotypically defined populations based on 7-color immunophenotyping (FIG. 1). The percent of responding (phosphorprotein positive) cells for each of these populations was determined from individual single parameter histograms based on a fixed integration region set on the inhibitor treated control at about 3% positives.

[2] = tested on: pAKT; details: for pAKT Percent (%) Responding Cells, Mean / pAKT S/N ratio: healthy donor BM, mean ± SD;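 for pAKT S/N ratio: Phosphoprotein MFI normalized to lymphocyte MFI as internal negative control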
Protocol: as §1, §2, §3

[3] = tested on: pS6; details: healthy donor BM, mean ± SD
Protocol: as §1, §2, §3

[4] = tested on: pERK; details: for pERK Percent (%) Responding Cells, Mean / pERK S/N ratio: healthy donor BM, mean ± SD
Protocol: as §1, §2, §3

[5] = tested on: pSTAT3; details: healthy donor BM, mean ± SD
Protocol: as §1, §2, §3

B1: FMS-Like Tyrosine Kinase 3 (FLT-3) ligand (protein, UniProt P49771 27-235, looked up)
Fms-related tyrosine kinase 3 …: TQDCSFQHSPISSDFAVKIRELSDYLLQDYPVTVASNLQDEELCGGLWRLVLAQRWMERLKTVAGSKMQGLLERVNTEIHFVTKCAFQPPPSCLRFVQTNISRLLQETSEQLVALKPWITRQNFSRCLELQCQPDSSTLPPPWSPRPLEATAPTAPQPPLLLLLLLPVGLLLLAAAWCLHWQRTRRRTPRPGEQVPPVPSPQDLLLVEH
For B1, the “pSTAT5 Percent (%) Responding Cells, Mean” value ([1]; CD34^+ (CD34^+/CD117^+ cells)) was 16.1 ± 6.1%, the “pSTAT5 S/N ratio” value ([1]; CD34^+ (CD34^+/CD117^+ cells)) was 1.9 ± 1.4 and the “pSTAT5 Percent (%) Responding Cells, Mean” value ([1]; CD117^+ (CD34^−/CD117^+ cells)) was 5.7 ± 5.8%. For the same molecule, the “pSTAT5 S/N ratio” value ([1]; CD117^+ (CD34^−/CD117^+ cells)) was 2.1 ± 0.6, the “pSTAT5 Percent (%) Responding Cells, Mean” value ([1]; G1, immature myeloid cells) was 2.7 ± 2.5% and the “pSTAT5 S/N ratio” value ([1]; G1, immature myeloid cells) was 2.6 ± 0.5. The “pSTAT5 Percent (%) Responding Cells, Mean” value ([1]; G2, intermediate myeloid cells) was 2.0 ± 1.6%, the “pSTAT5 S/N ratio” value ([1]; G2, intermediate myeloid cells) was 2.7 ± 0.5 and the “pSTAT5 Percent (%) Responding Cells, Mean” value ([1]; G3, mature myeloid cells) was 3.1 ± 1.0%. The “pSTAT5 S/N ratio” value ([1]; G3, mature myeloid cells) was 3.2 ± 0.7, the “pSTAT5 Percent (%) Responding Cells, Mean” value ([1]; Mono, monocytes) was 3.1 ± 1.9% and the “pSTAT5 S/N ratio” value ([1]; Mono, monocytes) was 3.9 ± 4.9. The “pAKT Percent (%) Responding Cells, Mean” value ([2]; CD34^+ (CD34^+/CD117^+ cells)) was 34.3% and 34.3 ± 19.4%, the “pAKT S/N ratio” value ([2]; CD34^+ (CD34^+/CD117^+ cells)) was 7.2 ± 4.9 and the “pAKT Percent (%) Responding Cells, Mean” value ([2]; CD117^+ (CD34^−/CD117^+ cells)) was 20.5 ± 28.3%. The “pAKT S/N ratio” value ([2]; CD117^+ (CD34^−/CD117^+ cells)) was 2.8 ± 2.9, the “pAKT Percent (%) Responding Cells, Mean” value ([2]; G1, immature myeloid cells) was 3.0 ± 4.3% and the “pAKT S/N ratio” value ([2]; G1, immature myeloid cells) was 2.3 ± 1.1. For the same molecule, the “pAKT Percent (%) Responding Cells, Mean” value ([2]; G2, intermediate myeloid cells) was 3.6 ± 5.0%, the “pAKT S/N ratio” value ([2]; G2, intermediate myeloid cells) was 2.4 ± 1.0 and the “pAKT Percent (%) Responding Cells, Mean” value ([2]; G3, mature myeloid cells) was 3.8 ± 2.5%. For the same molecule, the “pAKT S/N ratio” value ([2]; G3, mature myeloid cells) was 2.7 ± 1.3, the “pAKT Percent (%) Responding Cells, Mean” value ([2]; Mono, monocytes) was 21.5% and 21.5 ± 23.8% and the “pAKT S/N ratio” value ([2]; Mono, monocytes) was 4.2 ± 3.0. The “pAKT, Normal Sample” value ([2]; Table 7 comparison value) was 76.9, the “pS6 Percent (%) Responding Cells, Mean” value ([3]; CD34^+ (CD34^+/CD117^+ cells)) was 68.8% and 68.8 ± 21.1% and the “pS6 S/N ratio” value ([3]; CD34^+ (CD34^+/CD117^+ cells)) was 31.1 ± 26.0. For the same molecule, the “pS6 Percent (%) Responding Cells, Mean” value ([3]; CD117^+ (CD34^−/CD117^+ cells)) was 36.1 ± 16.4%, the “pS6 S/N ratio” value ([3]; CD117^+ (CD34^−/CD117^+ cells)) was 44.4 ± 44.4 and the “pS6 Percent (%) Responding Cells, Mean” value ([3]; G1, immature myeloid cells) was 2.1 ± 1.5%. For the same molecule, the “pS6 S/N ratio” value ([3]; G1, immature myeloid cells) was 3.3 ± 1.9, the “pS6 Percent (%) Responding Cells, Mean” value ([3]; G2, intermediate myeloid cells) was 2.5 ± 1.9% and the “pS6 S/N ratio” value ([3]; G2, intermediate myeloid cells) was 2.9 ± 1.8. For the same molecule, the “pS6 Percent (%) Responding Cells, Mean” value ([3]; G3, mature myeloid cells) was 3.9 ± 2.7%, the “pS6 S/N ratio” value ([3]; G3, mature myeloid cells) was 3.6 ± 2.3 and the “pS6 S/N ratio” value ([3]; Mono, monocytes) was 33.4 and 33.4 ± 30.5. The “pERK Percent (%) Responding Cells, Mean” value ([4]; CD34^+ (CD34^+/CD117^+ cells)) was 76.9% and 76.9 ± 11.0%, the “pERK S/N ratio” value ([4]; CD34^+ (CD34^+/CD117^+ cells)) was 11.9 ± 3.6 and the “pERK Percent (%) Responding Cells, Mean” value ([4]; CD117^+ (CD34^−/CD117^+ cells)) was 37.1 ± 8.8%. For the same molecule, the “pERK S/N ratio” value ([4]; CD117^+ (CD34^−/CD117^+ cells)) was 10.9 ± 2.9, the “pERK Percent (%) Responding Cells, Mean” value ([4]; G1, immature myeloid cells) was 3.3 ± 5.4% and the “pERK S/N ratio” value ([4]; G1, immature myeloid cells) was 2.9 ± 0.7. For the same molecule, the “pERK Percent (%) Responding Cells, Mean” value ([4]; G2, intermediate myeloid cells) was 6.3 ± 11.2%, the “pERK S/N ratio” value ([4]; G2, intermediate myeloid cells) was 2.8 ± 0.6 and the “pERK Percent (%) Responding Cells, Mean” value ([4]; G3, mature myeloid cells) was 9.1 ± 15.6%. For the same molecule, the “pERK S/N ratio” value ([4]; G3, mature myeloid cells) was 3.6 ± 1.3, the “pERK S/N ratio” value ([4]; Mono, monocytes) was 12.8 and 12.8 ± 6.7 and the “pERK, Normal Sample” value ([4]; Table 7 comparison value, matches percent responding CD34^+ cells of Tables 1-5) was 76.9. For the same molecule, the “pSTAT3 Percent (%) Responding Cells, Mean” value ([5]; CD34^+ (CD34^+/CD117^+ cells)) was 13.5 ± 9.4%, the “pSTAT3 S/N ratio” value ([5]; CD34^+ (CD34^+/CD117^+ cells)) was 3.5 ± 3.3 and the “pSTAT3 Percent (%) Responding Cells, Mean” value ([5]; CD117^+ (CD34^−/CD117^+ cells)) was 3.5 ± 2.2%. The “pSTAT3 S/N ratio” value ([5]; CD117^+ (CD34^−/CD117^+ cells)) was 2.6 ± 0.6, the “pSTAT3 Percent (%) Responding Cells, Mean” value ([5]; G1, immature myeloid cells) was 2.7 ± 3.3% and the “pSTAT3 S/N ratio” value ([5]; G1, immature myeloid cells) was 3.4 ± 0.4. The “pSTAT3 Percent (%) Responding Cells, Mean” value ([5]; G2, intermediate myeloid cells) was 1.8 ± 1.4%, the “pSTAT3 S/N ratio” value ([5]; G2, intermediate myeloid cells) was 3.3 ± 0.6 and the “pSTAT3 Percent (%) Responding Cells, Mean” value ([5]; G3, mature myeloid cells) was 5.3 ± 5.6%. For the same molecule, the “pSTAT3 S/N ratio” value ([5]; G3, mature myeloid cells) was 3.7 ± 0.5, the “pSTAT3 Percent (%) Responding Cells, Mean” value ([5]; Mono, monocytes) was 4.8 ± 3.9% and the “pSTAT3 S/N ratio” value ([5]; Mono, monocytes) was 2.6 ± 0.4.
